One experiment addresses ICAM-1 purified from human tonsil, immobilized (human) (UniProt P05362). Put plainly: 293T K287C/K294C LFA-1 cell adhesion to immobilized ICAM-1.
The substance monoclonal antibody RR1/1 yielded a % inhibition of 97.9%.

In a further experiment the target is iC3b coated on plastic (UniProt P01024). In words: cell adhesion to immobilized iC3b; -DTT, +activation.
As for “Mac-1 (αMβ2) mutant D294C/T307C (from UniProt P05107 23-769) (receptor)”, the percent of binding by activated wild type transfectant is 5 to 25%.

Substance “Mac-1 (αMβ2) mutant Q163C/R313C (locked closed) (from UniProt P05107 23-769) (receptor)” showed a percent of binding by activated wild type transfectant of 0 to 5%.

“Mac-1 (αMβ2) mutant Q298C/N301C (from UniProt P05107 23-769) (receptor)” had a percent of binding by activated wild type transfectant of 5 to 25%.

Another experiment has the same target. In words: cell adhesion to immobilized iC3b; -DTT, -activation.
“Mac-1 (αMβ2) mutant D294C/T307C (from UniProt P05107 23-769) (receptor)” had a percent of binding by activated wild type transfectant of 0 to 5%.

With “Mac-1 (αMβ2) mutant F297C/A304C (from UniProt P05107 23-769) (receptor)”, the percent of binding by activated wild type transfectant was 0 to 5%.

“Mac-1 (αMβ2) mutant Q163C/R313C (locked closed) (from UniProt P05107 23-769) (receptor)”: the percent of binding by activated wild type transfectant lay in the range of 0 to 5%.

Turning to “Mac-1 (αMβ2) mutant Q298C/N301C (from UniProt P05107 23-769) (receptor)”, the percent of binding by activated wild type transfectant is 0 to 5%.

Another experiment has the same target. In words: cell adhesion to immobilized iC3b; +DTT, +activation.
Take “Mac-1 (αMβ2) mutant Q163C/R313C (locked closed) (from UniProt P05107 23-769) (receptor)”: the percent of binding by activated wild type transfectant was in the range of 50 to 75%.

In a further experiment the target is wild-type LFA-1 (αL/β2 complex) (human) (UniProt P05107). Put plainly: K562 (+CBRLFA-1/2) cell adhesion to immobilized ICAM-1.
For “anti-β2 (CD18) monoclonal antibody CBRLFA-1/7”, the % inhibition amounted to 5.04%.

“anti-β2 (CD18) monoclonal antibody TS1/18” returned a % inhibition of 98.5%.

Regarding mAb YFC51 (antibody), the % inhibition is 98.4%.

For monoclonal antibody 6.5E, the % inhibition was 98.4%.

For the substance monoclonal antibody 25-3-1, the % inhibition came out at 92%.

As for monoclonal antibody BL5, the % inhibition came to 97.5%.

A further experiment concerns the target LFA-1 single cysteine substitution mutant K294C (human) (UniProt P05107). Put plainly: flow cytometry, 293T; normalised to TS2/4.
Take “anti-β2 (CD18) monoclonal antibody TS1/18”: the % wild-type binding was determined as 108%.

monoclonal antibody BL5 had a % wild-type binding of 88.3%.

The target of another experiment is LFA-1 high affinity open mutant K287C/K294C (αL K287C/K294C with β2) (human) (UniProt P05107). Put plainly: flow cytometry, 293T; normalised to TS2/4.
“anti-β2 (CD18) monoclonal antibody CBRLFA-1/7” showed a % wild-type binding of 95.3%.

Regarding “anti-β2 (CD18) monoclonal antibody TS1/18”, the % wild-type binding turned out to be 99.8%.

Substance mAb YFC51 (antibody) gave a % wild-type binding of 103%.

monoclonal antibody 25-3-1 registered a % wild-type binding of 93.1%.

monoclonal antibody BL5 returned a % wild-type binding of 92.4%.

Another experiment addresses LFA-1 low affinity closed mutant L289C/K294C (αL L289C/K294C with β2) (human) (UniProt P05107). In words: flow cytometry, 293T; normalised to TS2/4.
Regarding “anti-β2 (CD18) monoclonal antibody CBRLFA-1/7”, the % wild-type binding is 91.7%.

Substance “anti-β2 (CD18) monoclonal antibody TS1/18” returned a % wild-type binding of 95.7%.

mAb YFC51 (antibody) had a % wild-type binding of 95.1%.

Take monoclonal antibody 25-3-1: the % wild-type binding was 90.9%.

As for monoclonal antibody BL5, the % wild-type binding turned out to be 85.8%.

Another experiment concerns the target LFA-1 single cysteine substitution mutant L289C (human) (UniProt P05107). In words: flow cytometry, 293T; normalised to TS2/4.
Turning to “anti-β2 (CD18) monoclonal antibody TS1/18”, the % wild-type binding turned out to be 87.3%.

Consider monoclonal antibody BL5, for which the % wild-type binding worked out at 92.4%.

For a further experiment, the target named is LFA-1 single cysteine substitution mutant K287C (human) (UniProt P05107). In words: flow cytometry, 293T; normalised to TS2/4.
“anti-β2 (CD18) monoclonal antibody TS1/18” registered a % wild-type binding of 87.9%.

In turn, monoclonal antibody BL5 came in with a % wild-type binding of 93.3%.

Another experiment has as its target LFA-1 high affinity open mutant K287C/K294C (αL K287C/K294C with β2) (human) (UniProt P05107). In words: K562 cell adhesion to immobilized ICAM-1.
With “anti-β2 (CD18) monoclonal antibody CBRLFA-1/7”, the % inhibition amounted to 5.77%.

Substance “anti-β2 (CD18) monoclonal antibody TS1/18” had a % inhibition of 5.9%.

mAb YFC51 (antibody) gave a % inhibition of 0.08%.

monoclonal antibody 6.5E gave a % inhibition of 5.79%.

On to monoclonal antibody 25-3-1, for which the % inhibition is 2.53%.

monoclonal antibody BL5 returned a % inhibition of 90.7%.

A further experiment shares this target. Put plainly: 293T cell adhesion to immobilized ICAM-1.
Consider monoclonal antibody 25-3-1, for which the % inhibition worked out at 3.71%.

monoclonal antibody BL5: the % inhibition stood at 91.1%.

For another experiment, the target named is wild-type LFA-1 (αL/β2 complex) (human) (UniProt P05107). In words: 293T cell adhesion to immobilized ICAM-1.
The substance monoclonal antibody 25-3-1 had a % inhibition of 90.5%.

For monoclonal antibody BL5, the % inhibition amounted to 97%.

The target in the next experiment is ICAM-1 purified from human tonsil, immobilized (human) (UniProt P05362). Put plainly: 293T wild-type LFA-1 cell adhesion to immobilized ICAM-1.
Sequence of ICAM-1 purified from human tonsil, immobilized (human) (P05362 28-532 limits assumed, form in doubt): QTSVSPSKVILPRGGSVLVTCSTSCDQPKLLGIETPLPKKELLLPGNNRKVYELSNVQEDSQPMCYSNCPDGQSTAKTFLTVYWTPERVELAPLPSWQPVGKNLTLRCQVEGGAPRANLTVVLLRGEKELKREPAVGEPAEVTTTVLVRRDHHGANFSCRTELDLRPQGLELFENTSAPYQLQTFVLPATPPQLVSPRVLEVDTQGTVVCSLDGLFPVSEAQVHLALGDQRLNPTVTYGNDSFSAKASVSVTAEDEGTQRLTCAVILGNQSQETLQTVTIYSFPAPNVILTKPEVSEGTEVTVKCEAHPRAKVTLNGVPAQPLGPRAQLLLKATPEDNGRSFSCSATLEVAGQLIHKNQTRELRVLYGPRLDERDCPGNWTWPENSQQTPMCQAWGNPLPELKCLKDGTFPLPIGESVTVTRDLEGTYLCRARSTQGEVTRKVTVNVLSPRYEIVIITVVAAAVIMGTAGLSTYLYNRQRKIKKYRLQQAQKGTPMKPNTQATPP
Turning to monoclonal antibody RR1/1, the % inhibition was determined as 96%.

For another experiment, the target named is wild-type LFA-1 (αL/β2 complex) (human) (UniProt P05107). In words: cell adhesion to immobilized ICAM-1.
The substance “anti-β2 (CD18) monoclonal antibody TS1/18” had a % inhibition of more than 90%.

Substance mAb YFC51 (antibody) came in with a % inhibition of more than 90%.

Regarding monoclonal antibody 6.5E, the % inhibition was more than 90%.

Substance monoclonal antibody 25-3-1 gave a % inhibition of more than 90%.

For a further experiment, the target named is LFA-1 high affinity open mutant K287C/K294C (αL K287C/K294C with β2) (human) (UniProt P05107). Put plainly: flow cytometry, K562; normalised to TS2/4.
“anti-β2 (CD18) monoclonal antibody CBRLFA-1/7” returned a % wild-type binding of 95.2%.

For the substance “anti-β2 (CD18) monoclonal antibody TS1/18”, the % wild-type binding is 97.4%.

For the substance mAb YFC51 (antibody), the % wild-type binding was determined as 101%.

As to monoclonal antibody 25-3-1, the % wild-type binding was 88.5%.

On to monoclonal antibody BL5, for which the % wild-type binding is 92.4%.

In another experiment the target is LFA-1 low affinity closed mutant L289C/K294C (αL L289C/K294C with β2) (human) (UniProt P05107). Put plainly: flow cytometry, K562; normalised to TS2/4.
Regarding “anti-β2 (CD18) monoclonal antibody CBRLFA-1/7”, the % wild-type binding is 97.2%.

Consider “anti-β2 (CD18) monoclonal antibody TS1/18”, for which the % wild-type binding amounted to 106%.

With mAb YFC51 (antibody), the % wild-type binding amounted to 111%.

In the case of monoclonal antibody 25-3-1, the % wild-type binding is 85.7%.

With monoclonal antibody BL5, the % wild-type binding was determined as 97.6%.

The record behind these values is patent publication US20020123614A1.
